Assays:
[1] = target: BG505 SOSIP.664 HIV-1 Env ectodomain trimer; assay: SPR
[2] = target: BG505.SOSIP.664.201C-433C HIV-1 Env ectodomain trimer; assay: SPR
[3] = target: BG505 SOSIP.664 HIV-1 Env ectodomain trimer; assay: BLI
[4] = target: BG505.SOSIP.664.201C-433C HIV-1 Env ectodomain trimer; assay: BLI
[5] = target: BG505 SOSIP.664 HIV-1 Env ectodomain trimer; assay: SPR; CD4 Ig capture
[6] = target: BG505 SOSIP.664 HIV-1 Env ectodomain trimer; assay: SPR; 2G12 capture
[7] = target: T1, BG505 SOSIP.664 trimer+sCD4 complex (human, UniProt P01730 26-208); assay: SPR
[8] = target: BG505.SOSIP.664.201C-433C HIV-1 Env ectodomain trimer; assay: SPR; +sCD4
[9] = target: BG505.SOSIP.664.201C-433C HIV-1 Env ectodomain trimer; assay: BLI; remark: listed apart in the source
[10] = target: BG505.SOSIP.664.201C-433C HIV-1 Env ectodomain trimer; assay: SPR; remark: listed apart in the source
[11] = target: BG505 SOSIP.664 HIV-1 Env ectodomain trimer; assay: SPR; CD4 Ig capture; remark: listed apart in the source
[12] = target: T1, BG505 SOSIP.664 trimer+sCD4 complex; assay: SPR; 17b capture

Binder | Kd [1] [nM] | Kd [2] [nM] | Kd [3] [nM] | Kd [4] [nM] | Kd [5] [nM] | Kd [6] [nM] | Kd [7] [nM] | Kd [8] [nM] | Kd [9] [nM] | Kd [10] [nM] | Kd [11] [nM] | Kd [12] [nM]
PGT151 Fab (Fab, V domains shown) VH: RVQLVESGGGVVQPGKSVRLSCVVSDFPFSKYPMYWVRQAPGKGLEWVAAISGDAWHVVYSNSVQGRFLVSRDNVKNTLYLEMNSLKIEDTAVYRCARMFQESGPPRLDRWSGRNYYYYSGMDVWGQGTTVTVSS VL: DIVMTQTPLSLSVTPGQPASISCKSSESLRQSNGKTSLYWYRQKPGQSPQLLVFEVSNRFSGVSDRFVGSGSGTDFTLRISRVEAEDVGFYYCMQSKDFPLTFGGGTKVDLKR | 158 | 78.4 | 135 | 202 | 106 | 144 | – | – | – | – | – | –
447-52D antibody (antibody, V domains shown) VH: EVQLVESGGGLVKPGGSLRLTCVASGFTFSDVWLNWVRQAPGKGLEWVGRIKSRTDGGTTDYAASVKGRFTISRDDSKNTLYLQMNSLKTEDTAVYSCTTDGFIMIRGVSEDYYYYYMDVWGKGTTVTVSS VL: QSVLTQPPSVSAAPGQKVTISCSGSSSNIGNNYVLWYQQFPGTAPKLLIYGNNKRPSGIPDRFSGSKSGTSATLGITGLQTGDEADYFCATWDSGLSADWVFGGGTKLTVL | > 1000 | > 1000 | > 4000 | > 4000 | – | – | 1.2 | > 1000 | – | – | – | –
VRC01 (antibody, V domains shown) VH: QVQLVQSGGQMKKPGESMRISCRASGYEFIDCTLNWIRLAPGKRPEWMGWLKPRGGAVNYARPLQGRVTMTRDVYSDTAFLELRSLTVDDTAVYFCTRGKNCDYNWDFEHWGRGTPVIVSS VL: EIVLTQSPGTLSLSPGETAIISCRTSQYGSLAWYQQRPGQAPRLVIYSGSTRAAGIPDRFSGSRWGPDYNLTISNLESGDFGVYYCQQYEFFGQGTKVQVDI | – | – | – | – | – | – | – | – | 2.81 | 1.43 | – | –
PGT145 antibody (antibody, V domains shown) VH: QVQLVQSGAEVKKPGSSVKVSCKASGNSFSNHDVHWVRQATGQGLEWMGWMSHEGDKTGLAQKFQGRVTITRDSGASTVYMELRGLTADDTAIYYCLTGSKHRLRDYFLYNEYGPNYEEWGDYLATLDVWGHGTAVTVSS VL: EVVITQSPLFLPVTPGEAASLSCKCSHSLQHSTGANYLAWYLQRPGQTPRLLIHLATHRASGVPDRFSGSGSGTDFTLKISRVESDDVGTYYCMQGLHSPWTFGQGTKVEIK | 4.38 | 7.22 | 1.8 | 1.68 | – | 22.8 | – | – | – | – | – | –
F105 antibody (antibody, V domains shown) VH: QVQLQESGPGLVKPSETLSLTCTVSGGSISSHYWSWIRQSPGKGLQWIGYIYYSGSTNYSPSLKSRVTISVETAKNQFSLKLTSMTAADTAVYYCARGPVPAVFYGDYRLDPWGQGTLVTVSS VL: EIVLTQSPGTLSLSAGERATLSCRASQSVSSRYLAWYQQKPGQAPRLLIYGASSRATGIPDRFSGSGSGTDFTLTISRVEPEDFAVYYCQQYDNSVCTFGQGTKLEIK | > 1000 | > 1000 | > 4000 | > 4000 | – | – | – | – | – | – | – | –
35O22 Fab (Fab, V domains shown) VH: QGQLVQSGAELKKPGASVKISCKTSGYRFNFYHINWIRQTAGRGPEWMGWISPYSGDKNLAPAFQDRVIMTTDTEVPVTSFTSTGAAYMEIRNLKFDDTGTYFCAKGLLRDGSSTWLPYLWGQGTLLTVSS VL: QSVLTQSASVSGSLGQSVTISCTGPNSVCCSHKSISWYQWPPGRAPTLIIYEDNERAPGISPRFSGYKSYWSAYLTISDLRPEDETTYYCCSYTHNSGCVFGTGTKVSVL | – | – | – | – | – | – | – | – | 27.7 | 3.04 | 28 | 27.2
